According to PMC11733253:

Target: MRAS wild type, recombinant from E. coli (human) (UniProt O14807)
Assay: ITC

- Kd: 8.3 µM
Substance: BRAF-RBD (from UniProt P15056 150-233) (domain or fragment)
